We go through six molecules from patent US20060094111, “DNA containing variant FRT sequences” (published 2006).

The labels stand for the following.
T1: FLP recombinase (Saccharomyces cerevisiae, UniProt P03870 P03870:1-423)
T1 sequence: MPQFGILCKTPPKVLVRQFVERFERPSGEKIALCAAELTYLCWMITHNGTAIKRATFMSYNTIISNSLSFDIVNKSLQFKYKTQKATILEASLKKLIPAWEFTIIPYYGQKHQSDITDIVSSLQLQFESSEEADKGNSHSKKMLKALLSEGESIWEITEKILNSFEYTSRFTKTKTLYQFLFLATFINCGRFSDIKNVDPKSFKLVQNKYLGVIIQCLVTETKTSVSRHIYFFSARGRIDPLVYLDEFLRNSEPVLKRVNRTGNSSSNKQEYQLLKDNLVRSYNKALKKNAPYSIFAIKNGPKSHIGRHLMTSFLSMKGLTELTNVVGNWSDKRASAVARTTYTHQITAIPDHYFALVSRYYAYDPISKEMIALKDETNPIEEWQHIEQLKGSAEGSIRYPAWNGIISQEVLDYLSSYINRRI

B1: f72 mutant FRT (dsDNA)
DNA 1: TCGAGGACGTCGAAGTTCCTATACTTTCTACAGAATAGGAACTTCTCCGGAA
DNA 2: CTAGTTCCGGAGAAGTTCCTATTCTGTAGAAAGTATAGGAACTTCGACGTCC
B2: f2151 mutant FRT (dsDNA)
DNA 1: TCGAGGACGTCGAAGTTCCTATACTCTCCAGAGAATAGGAACTTCTCCGGAA
DNA 2: CTAGTTCCGGAGAAGTTCCTATTCTCTGGAGAGTATAGGAACTTCGACGTCC
B3: f61 mutant FRT (dsDNA)
DNA 1: TCGAGGACGTCGAAGTTCCTATACTTTCTGGAGAATAGGAACTTCTCCGGAA
DNA 2: CTAGTTCCGGAGAAGTTCCTATTCTCCAGAAAGTATAGGAACTTCGACGTCC
B4: F3 mutant FRT (dsDNA)
DNA 1: TCGAGGACGTCGAAGTTCCTATACTATTTGAAGAATAGGAACTTCTCCGGAA
DNA 2: CTAGTTCCGGAGAAGTTCCTATTCTTCAAATAGTATAGGAACTTCGACGTCC
B5: f2262 mutant FRT (dsDNA)
DNA 1: TCGAGGACGTCGAAGTTCCTATACTATCTTGAGAATAGGAACTTCTCCGGAA
DNA 2: CTAGTTCCGGAGAAGTTCCTATTCTCAAGATAGTATAGGAACTTCGACGTCC
B6: f2161 mutant FRT (dsDNA)
DNA 1: TCGAGGACGTCGAAGTTCCTATACTCTCTGGAGAATAGGAACTTCTCCGGAA
DNA 2: CTAGTTCCGGAGAAGTTCCTATTCTCCAGAGAGTATAGGAACTTCGACGTCC

In this series the target is T1, FLP recombinase. The experiment in a line: recombination of two identical sites; same buffer. As to conditions: tags: untagged; expressed from recombinant adenovirus AxCAFLP (2 micron DNA FLP gene) in 293 cells; chain copies: 4. Here is the method: Whether or not FLP-dependent recombination reaction caused between the two mutant FRT sequences was studied by the assay described below. The DraI-digested plasmid DNA (1.5 μg) prepared in Example 2 and the cell extract containing FLP (25 μl) prepared in Example 1 were added to buffer containing 50 mM Tris-HCl (pH 7.5)/10 mM MgCl₂/5 mM DTT in its final concentration (the volume of reaction solution: 50 μl), and the reaction mixture was incubated at 30° C. for 30 minutes. After the termination of the reaction, 200 μl of sterilized water and 50 […] of 20 mM EDTA solution (pH 8.0) were added to the reaction mixture. The reaction mixture was extracted with phenol/chloroform and with chloroform. The resulting product was precipitated with ethanol, to obtain DNA. The resulting DNA was then solubilized in 20 μl of TE buffer (pH 8.0) containing RNaseA (20 μg/ml). Next, an entire volume of the resultant was digested with restriction enzyme NcoI, and subjected to electrophoresis on agarose gel. Thereafter, DNA bands detected by ethidium bromide (EtBr) staining were analyzed.
In order to numerically express the reaction efficiency, the ratio of […] was calculated as the recombination ratio (%) between the two FRT sequences.
On to B1, for which the activity was 10.9%.
Turning to B2, the activity amounted to 2.9%.
The result for B3 reads 2.6%.
The result for B4 reads 3.1%; that for B5, 3.8%; that for B6, 4.5%.
